US9494585B2, “Tools for the identification of Lingo-1, Lingo-2, Lingo-3 and Lingo-4 ligands, and uses thereof” (CENTRE NATIONAL DE LA RECHERCHE SCIENTIFIQUE-CNRS, priority 2010, dated 2016)

B1: DN-Lingo-1-HA: HA-tagged dominant negative of Lingo-1 (amino acids 1-577, without cytoplasmic portion), known Lingo-1 inhibitor (protein)
chain: CPPRCECSAQDRAVLCHRKRFVAVPEGIPTETRLLDLGKNRIKTLNQDEFASFPHLEELELNENIVSAVEPGAFNNLFNLRTLGLRSNRLKLIPLGVFTGLSNLTKLDISENKIVILLDYMFQDLYNLKSLEVGDNDLVYISHRAFSGLNSLEQLTLEKCNLTSIPTEALSHLHGLIVLRLRHLNINAIRDYSFKRLYRLKVLEISHWPYLDTMTPNCLYGLNLTSLSITHCNLTAVPYLAVRHLVYLRFLNLSYNPISTIEGSMLHELLRLQEIQLVGGQLAVVEPYAFRGLNYLRVLNVSGNQLTTLEESVFHSVGNLETLILDSNPLACDCRLLWVFRRRWRLNFNRQQPTCATPEFVQGKEFKDFPDVLLPNYFTCRRARIRDRKAQQVFVDEGHTVQFVCRADGDPPPAILWLSPRKHLVSAKSNGRLTVFPDGTLEVRYAQVQDNGTYLCIAANAGGNDSMPAHLHVRSYSPDWPHQPNKTFAFISNQPGEGEANSTRATVPFPFDIKTLIIATTMGFISFLGVVLFCLV
modifications: left off: small tags and cut ends
B2: Lingo-1-HA: whole human Lingo-1 protein (amino acids 1-620) tagged with HA (protein)
chain: CPPRCECSAQDRAVLCHRKRFVAVPEGIPTETRLLDLGKNRIKTLNQDEFASFPHLEELELNENIVSAVEPGAFNNLFNLRTLGLRSNRLKLIPLGVFTGLSNLTKLDISENKIVILLDYMFQDLYNLKSLEVGDNDLVYISHRAFSGLNSLEQLTLEKCNLTSIPTEALSHLHGLIVLRLRHLNINAIRDYSFKRLYRLKVLEISHWPYLDTMTPNCLYGLNLTSLSITHCNLTAVPYLAVRHLVYLRFLNLSYNPISTIEGSMLHELLRLQEIQLVGGQLAVVEPYAFRGLNYLRVLNVSGNQLTTLEESVFHSVGNLETLILDSNPLACDCRLLWVFRRRWRLNFNRQQPTCATPEFVQGKEFKDFPDVLLPNYFTCRRARIRDRKAQQVFVDEGHTVQFVCRADGDPPPAILWLSPRKHLVSAKSNGRLTVFPDGTLEVRYAQVQDNGTYLCIAANAGGNDSMPAHLHVRSYSPDWPHQPNKTFAFISNQPGEGEANSTRATVPFPFDIKTLIIATTMGFISFLGVVLFCLVLLFLWSRGKGNTKHNIEIEYVPRKSDAGISSADAPRKFNMKMI
modifications: left off: small tags and cut ends
notes: whole human Lingo-1 protein (amino acids 1-620) tagged with HA

Target: T1, Lingo-1-RLuc/Lingo-1-YFP dimer (Homo sapiens, UniProt Q96FE5)
T1 construct: expressed in transfected cells; host or cells: HEK-293 (transient calcium phosphate transfection)
Test: BRET measurement of Lingo-1 dimerization (Lingo-1-RLuc/Lingo-1-YFP) on live transfected HEK-293 cells
Type: cell-based
Conditions: for BRET signal obtained between Lingo-1-RLuc and Lingo-1-YFP: HEK-293, HA-tagged construct co-expressed (800 ng), constant donor/acceptor ratio, 48 h after transfection, p<0.001 vs control
Procedure: For the BRET experiments, the HEK-293 cells cultured in 6-well plates, pre-treated with collagen, are transiently transfected using the calcium phosphate technique. Briefly, the plasmid DNA is mixed into a phosphate buffer (2×BBS, composed in particular of 50 mM BES (Cat No. B4554, Sigma), 280 mM NaCl, 1.5 mM Na2HPO4, adjusted to pH 6.95) with calcium chloride (2.5 M). After incubation for 15 minutes, the precipitate obtained is applied to the cells for 24 hours. The cells are then rinsed and incubated for a further 24 hours in a culture medium without antibiotics.
The cells are resuspended in a physiological buffer (HBSS for Hank's Buffered Salt Solution (Cat No. 14025100, Gibco, composed in particular of calcium chloride, magnesium chloride, magnesium sulfate, potassium chloride, monobasic potassium phosphate, sodium bicarbonate, sodium chloride, anhydrous dibasic sodium phosphate)) 48 hours after transfection and distributed into 96-well plates (100 000 to 200 000 cells per well) or into 384-well plates (20 000 to 40 000 cells per well). The fluorescence and luminescence readings are carried out at ambient temperature on a microplate reader, Mithras LB 940 (Berthold). The yield from transfection of the Lingo-1-eYFP, Lingo-2-eYFP, Lingo-3-eYFP or Lingo-4-eYFP construct is evaluated by reading the fluorescence of the eYFP emitted at 530-540 nm after excitation at 480 nm. The yield from transfection of the Lingo-1-RLuc, Lingo-2-RLuc, Lingo-3-RLuc or Lingo-4-RLuc construct is evaluated by reading the luminescence (1 second) obtained immediately after the addition of the coelenterazine substrate (5 μM).
The measurement of the BRET signal is carried out immediately after the addition of coelenterazine. […] The energy transfer which takes place in the fusion protein between the Rluc and the eYFP causes the appearance of a fluorescence signal with a maximum emission at 530-540 nm, characteristic of the spectral properties of eYFP. […]
The BRET reading was carried out at ambient temperature on a microplate reader, Mithras LB 940 (Berthold), using the new BRET filters. […]

Molecule | BRET signal obtained between Lingo-1-RLuc and Lingo-1-YFP | BRET signal obtained between the Lingo-1-RLuc and Lingo-1-YFP proteins (HEK-293, Lingo-1-RLuc 250 ng/Lingo-1-YFP 1500 ng, new filters, HA-tagged protein at 0-2600 ng plasmid)
B1 | significantly decreased | significantly decreased
B2 | significantly decreased | –
